The record followed here is patent US20240317852A1 (Molecular Partners, published 2024).

To fix the notation:
T1: biotinylated splice variant of the extracellular domain of human CD33 (residues 140-259, constant domain … (human, UniProt P20138 140-259, biotinylated with BirA-GST (Avi tag)))
T1 construct: Bought from Evitria; a second Fc chain may be present, not described; also called splice variant CD33; spliced variant; not shown: C-terminal Fc tag and Avi tag
T1 chain: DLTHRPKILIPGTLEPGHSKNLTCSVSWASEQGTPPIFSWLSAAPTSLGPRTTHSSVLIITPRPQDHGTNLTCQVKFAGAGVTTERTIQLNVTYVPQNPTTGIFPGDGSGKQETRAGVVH

B1: DARPin® protein #7 in TCE format (formatted with a CD3-specific ankyrin repeat domain) (designed binder)
chain: MRGSHHHHHHGSDLGLKLLRAAYDGQDDEVRILLAAGADVNAKDWQGFTPLHYAAVLGHLEIVEVLLKAGADVNAKDQEGATPLHLAALHGHLEIVEVLLKAGADVNAQDESGWTPADLAAKWGHEDIAEVLQKAA
notes: Crude extract HTRF construct also carried a C-terminal Flag tag; not shown: which one,
B2: DARPin® protein #14 in TCE format (formatted with a CD3-specific ankyrin repeat domain) (designed binder)
chain: MRGSHHHHHHGSDLGWKLLNAAIAGQDDEVRILLAAGADVNAKDTEYGWTPLHIAASDGHLEIVEVLLKAGADVNAKDYAGSTPLHAAAFVGHLEIVEVLLKAGADVNAQDHQGQTPADLAAQQGHVDIAEVLQKAA
notes: as for B1
B3: DARPin® protein #3 in TCE format (formatted with a CD3-specific ankyrin repeat domain) (designed binder)
chain: MRGSHHHHHHGSDLGVKLLRAAFHGQDDEVRILLAAGADVNAKDTDGETPLHYAAQFGHLEIVEVLLKAGADVNAKDAYGATPLHWAAWHGHLEIVEVLLKAGADVNAQDVSGATPADLAAKVGHEDIAEVLQKAA
notes: as for B1
B4: DARPin® protein #16 in TCE format (formatted with a CD3-specific ankyrin repeat domain) (designed binder)
chain: MRGSHHHHHHGSDLGKKLLQAARAGQLDEVRELLKAGADVNAKDHQGETPLHLAASQGHLEIVEVLLKAGADVNAKDLAGYTPLHLAAWTGHLEIVEVLLKAGADVNAKDQWGRTPLHIAAASGHLEIVEVLLKAGADVNAQDKSGKTPADLAARAGHQDIAEVLQKAA
notes: as for B1
B5: DARPin® protein #1 in TCE format (formatted with a CD3-specific ankyrin repeat domain) (designed binder)
chain: MRGSHHHHHHGSDLGWKLLLAASRGQDDEVRILLAAGADVNAKDIDEGYTPLHIAAYYGHLEIVEVLLKAGADVNAKDRYGKTPLHLAAISGHEDIAEVLLKAGADVNAQDDKGDTPADLAADYGHEDIAEVLQKAA
notes: not shown: which one,
B6: DARPin® protein #8 in TCE format (formatted with a CD3-specific ankyrin repeat domain) (designed binder)
chain: MRGSHHHHHHGSDLGWKLLSAATLGQDDEVRILLAAGADVNAKDEWGKTPLHWAASTGHLEIVEVLLKAGADVNAKDLWGHTPLHEAAAKGHLEIVEVLLKAGADGNAQDNIGDTPADLAAYQGHEDIAEVLQKAA
notes: as for B1
B7: DARPin® protein #15 in TCE format (formatted with a CD3-specific ankyrin repeat domain) (designed binder)
chain: MRGSHHHHHHGSDLGKKLLQAARAGQLDEVRELLKAGADVNAKDLIGWTPLHLAAHYGHLEIVEVLLKAGADVNAKDAQGWTPLHIAAWEGHLEIVEVLLKAGADVNAKDWTGETPLHLAAFEGHLEIVEVLLKAGADVNAQDKSGKTPADLAARAGHQDIAEVLQKAA
notes: as for B1
B8: DARPin® protein #5 in TCE format (formatted with a CD3-specific ankyrin repeat domain) (designed binder)
chain: MRGSHHHHHHGSDLSKKLLQAARAGQLDEVRELLKAGADVNAKDQIGQTPLHLAAQSGHLEIVEVLLKAGADVNAKDTEGWTPLHVAAWEGHLEIVEVLLKAGADVNAKDWTGETPLHLAAYQGHLEIVEVLLKAGADVNAQDKSGKTPADLAARAGHQDIAEVLQKAA
notes: as for B1
B9: DARPin® protein #14, monovalent CD33 specific binding protein (designed binder)
chain: MRGSHHHHHHGSDLGWKLLNAAIAGQDDEVRILLAAGADVNAKDTEYGWTPLHIAASDGHLEIVEVLLKAGADVNAKDYAGSTPLHAAAFVGHLEIVEVLLKAGADVNAQDHQGQTPADLAAQQGHVDIAEVLQKAA
notes: Crude extract in the HTRF
B10: DARPin® protein #1, monovalent CD33 specific binding protein (designed binder)
chain: MRGSHHHHHHGSDLGWKLLLAASRGQDDEVRILLAAGADVNAKDIDEGYTPLHIAAYYGHLEIVEVLLKAGADVNAKDRYGKTPLHLAAISGHEDIAEVLLKAGADVNAQDDKGDTPADLAADYGHEDIAEVLQKAA
notes: Crude extract in the HTRF; also called DARPin® protein #91 [sic]
B11: DARPin® protein #9 in TCE format (formatted with a CD3-specific ankyrin repeat domain) (designed binder)
chain: MRGSHHHHHHGSDLGYKLLWAASAGQDDEVRILLAAGADVNAKDKDGATPLHFAAAKGHLEIVEVLLKAGADVNAKDNRGATPLHYVAAASGHLEIVEVLLKAGADVNAQDEWGNTPADLAAIYGHGDIAEVLQKAA
notes: as for B1

The first assay has as its target T1, biotinylated splice variant of the …. Description: SPR (ProteOn XPR36), biotinylated splice variant CD33 on NLC chip.
For B1, the binding result is “no binding (tested: 50 nM)”.
Same read-out and setting: as for B2, the entry is “no binding (tested: 50 nM)”; as for B3, “no binding (tested: 50 nM)”; as for B4, “no binding (tested: 50 nM)”.
B5: the binding result was “no binding (tested: 50 nM)”.
The same measure, in the same setting: for B6 the value was “no binding (tested: 50 nM)”; for B7, “no binding (tested: 50 nM)”.
The same measure, in the same setting: as for B8, the entry is “no binding (tested: 50 nM)”.

Another assay has the same target. Description: HTRF, 6 nM biotinylated hCD33-C2-Fc(kih)-Avi, Strep-Tb and anti-6His-d2. As for the experimental part: First, a binding experiment has been performed against full-length (V/C2 domains) and truncated CD33 (C2 domain) by HTRF, using crude extracts of the three CD33-specific binding proteins DARPin® protein #1. DARPin® protein #9 and DARPin® protein #14. Binding to the CD33 target was detected using Strep-Tb and anti-His-D2 HTRF reagents. In brief, crude extract of DARPi® protein #1, DARPin® protein #9 and DARPin® protein #14 was diluted 1:250 (final 1:1000) with PBSTB and added into a 384-well plate (PerkinElmer, 6008280). Then, the biotinylated target_hCD33-Fc(kih)-Avi (full-length CD33; purchased from Evitria) and hCD33-C2-Fc(kih)-Avi (truncated CD33; purchased from Evitria) respectively was diluted to 8 nM (final 6 nM) and mixed with the HTRF reagents Mab Anti-6His-d2 and Strep-Tb, both 1:200 diluted (final 1:400). As depicted in FIG. 5, all three CD33 specific binding proteins DARPin® protein #1. DARPin® protein #9 and DARPin® protein #14 show binding to the full-length CD33 but only DARPin® protein #9 binds to the truncated CD33 target.
Consider B9, for which the binding result is listed as “no binding”.
On to B10, for which the binding result was “no binding”.

A further assay shares this target. Description: SPR (ProteOn XPR36), biotinylated splice variant CD33 on NLC chip, DARPin at 50 nM, single trace.
In turn, B11 showed a Kd of 1.9 nM.
